Drawing on US20250375541A1, “RADIOPHARMACEUTICAL COMPOSITION AND METHODS” (Ariceum Therapeutics GmbH, priority 2024, published 2025), this text covers radiochemical purity for one substance.

A short description of the data set: Stability of the radiopharmaceutical composition: radiochemical purity by radio-TLC over time from EoP. It counts as physicochemical. The settings on record: Tris pH 8.0, sodium ascorbate formulation. The method, then: Upon reaction completion, the mixture was directly cooled down with formulation solution (123.7 mg/mL sodium ascorbate buffer) to yield a 20 mL [^225Ac]Ac-DOTA-satoreotide stock solution. Reaction completion is referred to as the “end-of-production” (EoP) time, or t=0 h as used in the following results.
This was determined by radio TLC as set out below.
Radio-TLC was performed at T=0 h and at various time points subsequent to the radiolabeling procedure. To run the procedure, 5 μL of reaction solution was spotted on a TLC plate (RP-C18 silica glass plates) at about 1.5 cm from bottom edge. The TLC plate was developed using a mobile phase mixture of ammonium acetate 25% and methanol (40:60 Vol.-%) with an elution length of about 5-6 cm. The TLC plate was dried and measured on a phosphor imager (Perkin Elmer Cyclone Plus Storage Phosphor system) once secular equilibrium of ^225Ac and ^221Fr/^213Bi was reached (>6 hours after development). Free Ac(III) stays at the origin while ^225Ac-DOTA-Satoreotide travels with the eluent front.
In FIG. 1, “T=Xh, read Yh” means that a sample was taken and developed at T=Xh but analyzed Yh after development of the TLC plate, to account for equilibrium of the daughters.

[^225Ac]Ac-DOTA-satoreotide: the radiochemical purity came to 95.8% (after 168 hours (from EoP) at ambient temperatures) and 98.9% (at 96 h from EoP).
